# “Also recorded” adds a separate entry of the source.
# Tests used:
# [1] = system: threshold for halothane anesthesia; experiment: Determination of halothane RREC50 (righting reflex); assay type: in vivo, mouse; details: mice; for halothane RREC50: mean±S.E.M., vehicle 0.48±0.02; for effect on halothane RREC50: intraperitoneal injection, dose series
# Method: The purified fusion peptides at the indicated amounts were injected intraperitoneally into mice in 300 μl of phosphate-buffered saline and 10% glycerol. The mice were given Tat-PSD-95 PDZ2 or control peptide (mutated Tat-PSD-95 PDZ2 or PSD-95 PDZ2 without Tat) 4 h before MAC measurement and righting reflex testing. All the animals were assigned randomly to experimental groups consisting of 6-8 animals each. Western blot analysis was then used to verify the CNS delivery of these fusion peptides after intraperitoneal injection. Following the measurement of MAC, the halothane concentration was halved for 10 min and the animal turned on its back to test the righting reflex defined as a return onto all four paws within 1 min^20-22. […] RREC50 was calculated for each mouse as the mean value of the anesthetic concentrations that just permitted and just prevented the righting reflex.
# [2] = system: threshold for halothane anesthesia; experiment: Measurement of halothane MAC (tail clamp); assay type: in vivo, mouse; details: mice; for halothane MAC: mean±S.E.M., vehicle 1.12±0.05; for effect on halothane MAC: intraperitoneal injection, dose series
# Method: The purified fusion peptides at the indicated amounts were injected intraperitoneally into mice in 300 μl of phosphate-buffered saline and 10% glycerol. The mice were given Tat-PSD-95 PDZ2 or control peptide (mutated Tat-PSD-95 PDZ2 or PSD-95 PDZ2 without Tat) 4 h before MAC measurement and righting reflex testing. All the animals were assigned randomly to experimental groups consisting of 6-8 animals each. Western blot analysis was then used to verify the CNS delivery of these fusion peptides after intraperitoneal injection. Measurement of halothane MAC value was carried out as previously described with minor modification^20-22. Mice were placed in individual Plexiglas chambers 3 h after the injection of the fusion peptides. Each chamber was fitted with a rubber stopper at one end through which the mouse's tail and a rectal temperature probe protruded. Groups of four mice were given halothane in oxygen (4 l/min total gas flow). A gas sample was continuously drawn, and the anesthetic concentration was measured with an agent analyzer (Ohmeda 5250 RGM, Louisville, Colo.). A rectal temperature probe was inserted under light general anesthesia, and temperature was kept at 36˜38° C. with heat lamps throughout the experiment. Mice initially breathed approximately 1.5% halothane for 60 min. […] In each case, the tail was stimulated proximal to the previous test site. Only the middle third of the tail was used for tail-clamping. […] The anesthetic concentration was increased (or decreased) in steps of 0.1% until the positive response disappeared (or vice versa), with 10 min for equilibration allowed after each change of anesthetic concentration. MAC is defined as the concentration midway between the highest concentration that permitted movement in response to the stimulus and the lowest concentration that prevented movement.
# [3] = In vivo CNS / spinal cord distribution of Tat fusion peptides after intraperitoneal injection (Western blot, immunohistochemistry); set-up: species or system mouse; details: mice; for delivery into lumbar spinal cord, Western blot: 4 h after intraperitoneal injection; for delivery into cerebral cortex, hippocampus and lumbar spinal cord, Western blotting: 4 h after intraperitoneal injection (data not shown); for distribution in the spinal cord, immunohistochemical staining: after intraperitoneal injection; for dose dependence of delivery into the spinal cord, Western blot: intraperitoneal 2, 4, 8 mg/kg
# Method: In Vivo Systemic Administration and Spinal Cord Distribution of Tat Fusion Peptides. Western blot analysis and immunohistochemistry were used to detect the spinal cord distribution of Tat fusion peptides after systemic administration. The purified fusion peptides at the indicated amounts were injected into mice intraperitoneally in 300 μl of PBS and 10% glycerol, as previously described (Cao, et al., 2002). The mice, assigned randomly to the experimental groups of 6-8, were given Tat-PSD-95 PDZ2 or control peptide (mutated Tat-PSD-95 PDZ2 or PSD-95 PDZ2 without Tat PTD) 4 h before sample collection. For Western blotting, lumbar spinal cord tissues were harvested, homogenized according to standard procedures, and centrifuged at 700×g for 15 min at 4° C. The extracted proteins were resolved by SDS-PAGE, electro-transferred to nitrocellulose membranes, and then immunoblotted with above-mentioned monoclonal anti-His antibody. For immunohistochemistry, sections from the spinal lumbar enlargement segments were fixed in 4% paraformaldehyde (in 0.1 M phosphate buffer, pH 7.4) for 10 min, and then incubated with the monoclonal anti-His antibody. Thereafter, the sections were rinsed with 0.01 M PBS, incubated with fluorescein isothiocyanate-conjugated anti-mouse IgG (1:80; Jackson ImmunoResearch Laboratories) for 1 h at 37° C., and rinsed again with PBS. The sections were imaged with confocal laser scanning microscopy at an excitation wavelength of 488 nm for fluorescein isothiocyanate.
# The purified fusion peptides at the indicated amounts were injected intraperitoneally into mice in 300 μl of phosphate-buffered saline and 10% glycerol. The mice were given Tat-PSD-95 PDZ2 or control peptide (mutated Tat-PSD-95 PDZ2 or PSD-95 PDZ2 without Tat) 4 h before MAC measurement and righting reflex testing. All the animals were assigned randomly to experimental groups consisting of 6-8 animals each. Western blot analysis was then used to verify the CNS delivery of these fusion peptides after intraperitoneal injection.
# Cerebral cortex, hippocampus, and lumbar spinal cord were harvested 4 h after intraperitoneal injection of the fusion peptides. Total proteins from these tissues were extracted. In brief, the tissues were removed and homogenized in homogenization buffer^18 (10 mM Tris-HCl, 5 mM MgCl2, 2 mM EGTA, 1 mM phenylmethylsulfonyl fluoride, […] leupeptin, 2 μM pepstatin A, and 320 mM sucrose, pH 7.4). The crude homogenates were centrifuged at 700×g for […] at 4° C. The pellets were rehomogenized and spun again at 700×g, and the supernatants were combined and diluted in resuspension buffer^18 (10 mM Tris-HCl, 5 mM MgCl2, 2 mM EGTA, 1 mM phenylmethylsulfonyl fluoride, 1 μM leupeptin, 2 μM pepstatin A, and 250 mM sucrose, pH 7.4). Next, the protein extracts were resolved by sodium dodecyl sulfate-polyacrylamide gel electrophoresis, electrotransferred to nitrocellulose membranes, and then immunoblotted with monoclonal anti-His antibody (Sigma, St. Louis, Mo.) diluted (1:1,000) in blocking solution containing 3% nonfat dry milk and 0.1% Tween-20 in Tris-HCl-buffered saline for 1 h at room temperature. After extensive washing, the membranes were incubated with horseradish peroxidase-conjugated anti-mouse immunoglobulin (Bio-Rad Laboratories, Hercules, Calif.) at a dilution of 1:3,000 for another 1 h. Specific proteins were detected by enhanced chemiluminescence (Amersham, Piscataway, N.J.). Tubulin served as a loading control and cerebral cortex was used for its detection.
Molecule,halothane RREC50 ([1]; 2 mg/kg intraperitoneal),halothane RREC50 ([1]; 4 mg/kg intraperitoneal),halothane RREC50 ([1]; 8 mg/kg intraperitoneal),effect on halothane RREC50 [1],effect on halothane RREC50 compared to vehicle-treated group ([1]; two higher doses (4 and 8 mg/kg) intraperitoneal),halothane MAC ([2]; 2 mg/kg intraperitoneal),halothane MAC ([2]; 4 mg/kg intraperitoneal),effect on halothane MAC compared to the vehicle-treated group ([2]; 8 mg/kg intraperitoneal),halothane MAC ([2]; 8 mg/kg intraperitoneal),effect on halothane MAC [2],"delivery into lumbar spinal cord, Western blot [3]","delivery into cerebral cortex, hippocampus and lumbar spinal cord, Western blotting [3]","distribution in the spinal cord, immunohistochemical staining [3]","dose dependence of delivery into the spinal cord, Western blot [3]","dose dependence of delivery into the spinal cord, Western blot ([3]; listed as Tat-P SD-95 PDZ2)",effect on halothane RREC50 compared to vehicle-treated group ([1]; 8 mg/kg intraperitoneal),"difference in PTD-mediated spinal delivery versus Tat-PSD-95 PDZ2 ([3]; intraperitoneal injection, Western blot)","delivery into lumbar spinal cord, Western blot ([3]; listed as PSD-95 PDZ2 without Tat)"
Tat-PSD-95 PDZ2: His-tagged fusion peptide: HIV Tat minimal transduction domain (residues 47-57) fused to the second PDZ domain of PSD-95 (protein) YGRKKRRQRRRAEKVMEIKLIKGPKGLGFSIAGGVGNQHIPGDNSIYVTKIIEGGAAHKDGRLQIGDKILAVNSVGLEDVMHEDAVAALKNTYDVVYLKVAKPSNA,0.45±0.03,0.37±0.03,0.18±0.02,dose-dependently reduced,significantly reduced,1.11±0.05,0.99±0.05,significantly reduced,0.77±0.05,dose-dependently reduced,delivered into lumbar spinal cord,"delivered into cerebral cortex, hippocampus and lumbar spinal cord",distributed in the spinal cord,dose-dependently delivered; also recorded: dose-dependent,dose-dependent,–,–,–
"mutated Tat-PSD-95 PDZ2: Control fusion peptide: Tat-PSD-95 PDZ2 with three sites critical for NMDAR/PSD-95 interaction mutated (K165T, L170R and H182L) (protein) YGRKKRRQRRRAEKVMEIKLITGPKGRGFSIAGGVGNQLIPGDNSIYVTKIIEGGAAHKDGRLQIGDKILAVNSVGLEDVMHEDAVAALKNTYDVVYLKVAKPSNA",–,–,–,no effect,–,–,–,no effect,–,no effect,delivered into lumbar spinal cord,"delivered into cerebral cortex, hippocampus and lumbar spinal cord",–,–,–,no effect,No significant difference,–
PSD-95 PDZ2: Control peptide containing the same sequences as Tat-PSD-95 PDZ2 but without Tat PTD (protein) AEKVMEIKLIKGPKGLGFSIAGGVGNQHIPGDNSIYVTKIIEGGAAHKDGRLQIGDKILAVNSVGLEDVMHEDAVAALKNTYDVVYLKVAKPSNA,–,–,–,no effect,–,–,–,no effect,–,no effect,–,–,not detected,–,–,no effect,–,not detected
